The text below walks through data of EP1977765A1, “Peptide prodrugs” (Diatos, priority 2007, dated 2008).

Data set [1] concerns HCT 116 colon cancer cell line. Put plainly: In vitro cytotoxicity, WST-1 viability test. The format is cell-based. The following applies: mean of 3 independent experiments. How it is done:
The cytotoxicity of different drug conjugates was evaluated using the HCT 116 colon cancer cell line and was compared to the cytotoxicity of the free drug (doxorubicin, mitomycin C or paclitaxel). Cells were seeded at 8 000 cells/well and maintained in Mc Coy medium supplemented with 10% fetal bovine serum for 24 hours before treatment. Cells were incubated with increasing concentrations of drugs or conjugates at 37°C, 5% CO2. The medium was then removed and a WST-1 test (purchased from Roche) was performed according to the manufacturer's instructions. The cytotoxicity of the tested conjugates was expressed as the molar concentration inhibiting 50% of the cell viability (IC50), calculated using Graph Pad Prism 3.02 software. Experimental data are presented as the mean of three independent experiments performed in duplicate.
Table 1: Drug concentration that inhibits 50% of cell viability (IC50) using the HCT 116 cell line. Data represent the mean value of 3 independent experiments. After the indicated exposure time at 37°C, cells were rinsed and a viability assay (WST1 test) was performed to determine IC50.
In general terms: Tetrazolium dyes change colour on reduction, which living cells bring about.

A short description of data set [2]: In vitro human plasma stability of drug conjugates (HPLC). The format is in vitro ADME. Conditions: for remaining at 6 h, 100 µM: 100 µM paclitaxel conjugates, read-out: plasma stability (% conjugate). How it is done: Human plasma (citrated human blood was centrifuged at 600 g for 10 min at +4°C, plasma was recovered and aliquots stored at -20°C) was used to assess the stability of the following drug conjugates: Suc-ALAL-doxorubicin, Suc-βALAL-doxorubicin, TA-ALAL-doxorubicin, Suc-βALAL-MMC, TA-ALAL-MMC, Suc-βALAL-paclitaxel and TA-ALAL-paclitaxel. The drug conjugates (50 µM doxorubicin or MMC, 100 µM paclitaxel conjugates) were incubated at 37°C with human plasma either for 0, 2 or 6 hours, 50 µL of sample were collected at each time point and extraction was performed immediately.
For the doxorubicin conjugate and metabolites, 150 µL of acetonitrile was added to the 50 µL samples. Samples were vortexed and centrifuged for 10 min at 13 000 rpm at room temperature. 100 µL were harvested and 200 µL of 2% ammonium formate pH 4.0 were added before centrifugation (10 min at 13 000 rpm). HPLC analysis (at 560 nm) was performed using the supernatant.
For MMC conjugate and metabolites were extracted prior to HPLC analysis. 100 µL of acetonitrile was added to the 50 µL of sample, prior to vortexing (10 seconds) and centrifugation (10 min at 13 000 rpm) at room temperature. 50 µL of supernatant was recovered and mixed with 150 µL of Phosphate Buffer Saline (PBS) 1X. After centrifugation (10 min at 13 000 rpm), 150 µL of supernatant were collected for HPLC analysis. Stability and reactivation were evaluated by HPLC analysis (at 270 nm) and MMC conjugate and metabolite peak areas were compared.
For the paclitaxel conjugate and metabolites, 150 µL of acetonitrile was added to 50 µL of sample, vortexed and centrifuged for 10 min at 13 000 rpm at room temperature. 100 µL of supernatant was recovered and mixed with 100 µL of water. After centrifugation (10 min at 13 000 rpm), the supernatant was collected for HPLC analysis (at 230 nm).

Data set [3] is described as follows: In vivo toxicity of doxorubicin conjugates in LS 174T tumor-bearing nude mice (i.v.). The following applies: for equitoxic dose: i.v. How it is done: Toxicity studies were conducted in LS 174T tumor-bearing nude mice following intravenous administration. […] LS 174T tumors were established by a subcutaneous implantation of cells (3 x 10^7 cells injected) in the right flank of 7 weeks old female NMRI nude mice (Janvier, France). The day of the first injection, animals were randomly assigned to groups of 6 animals. The TA-ALAL-doxorubicin and Suc-ALAL-doxorubicin conjugates were dissolved in saline and Suc-βALAL-doxorubicin was prepared in glucose 5%. All conjugates were delivered by bolus intravenous injection (i.v.) in the lateral tail vein at 10 µL/g. During the course of the experiment, clinical signs and body weight were controlled at least twice a week. The experiment was repeated twice. Table 2: In vivo toxicity of TA-ALAL-doxorubicin conjugate compared to Suc-βALAL-doxorubicin and Suc-ALAL-doxorubicin in LS 174T tumor-bearing mice.

In data set [4] the test system is LS 174T tumors. The data set is described as follows: In vivo anti-tumoral efficacy of doxorubicin conjugates in the LS 174T tumor model. Set-up: species or system NMRI nude mice. An excerpt:
(§1) Treatments were initiated when the tumors had reached a size of 100 mm^3 (calculated using the following formula: [length x width^2]/2). […] During the course of the experiment, clinical signs, body weight and tumor volume were controlled twice a week. Results are presented as the evolution of mean tumor volume as a function of time. Optimal T/C (ratio of mean tumor volume of treated versus control mice) values were used as a measure of treatment efficacy. The optimal T/C% reflects the maximal tumor growth inhibition achieved. The experiment was repeated twice.

The subject of data set [5] is LS 174T tumors. The data set is described as follows: In vivo anti-tumoral efficacy of mitomycin C conjugates in the LS 174T tumor model. The arrangement: species or system NMRI nude mice.
Excerpt: as §1
The in vivo anti-tumoral efficacy of TA-ALAL-MMC was compared to that of Suc-βALAL-MMC in the LS 174T tumor model. The establishment of the LS 174T tumors and the treatments were carried out as previously described in Example V. TA-ALAL-MMC conjugate was dissolved in saline and Suc-βALAL-MMC conjugate was prepared in 3% DMSO in Sodium phosphate buffer (15mM). […] During the course of the experiment, clinical signs, body weight and tumor volume were controlled twice a week. The experiment was repeated twice. Table 4: Anti-tumoral efficacy of TA-ALAL-MMC compared to Suc-βALAL-MMC in the LS 174T tumor model.

The mark [6] stands for this setting: Experiment 1, dose 67.7 µmol/kg i.v., LS 174T tumor-bearing mice.
[7] abbreviates: Experiment 1, dose 67.7 µmol/kg i.v., groups of 6 animals.
Where [8] appears, read: Experiment 2, LS 174T tumor-bearing mice.
The mark [9] stands for this setting: Experiment 1, dose 67.7 µmol/kg i.v.
[10] abbreviates: after 6 hours in human plasma at 37°C.
Setting [11] is: Experiment 2, dose 77.4 µmol/kg i.v.
The mark [12] stands for this setting: Experiment 1, dose 60 µmol/kg i.v.
Where [13] appears, read: Experiment 2, dose 80 µmol/kg i.v.

Read-outs that look alike come from different tables or passages of the source. Bounds are passed on as bounds.

As a reminder, the IC50 is the midpoint of a concentration-inhibition curve. The molecule `CO[C@@]12[C@H](COC(N)=O)C3=C(C(=O)C(C)=C(N)C3=O)N1C[C@@H]1N[C@@H]12` [Mitomycin C (MMC), mitomycin C] yielded an IC50 in data set [1] (incubation time 24 h) of 5 µM.

`COc1cccc2c1C(=O)c1c(O)c3c(c(O)c1C2=O)CC(O)(C(=O)CO)CC3OC1CC(NC(=O)C(CC(C)C)NC(=O)C(C)NC(=O)C(CC(C)C)NC(=O)C(C)NC(=O)CCC(=O)O)C(O)C(C)O1` (centres unmarked) [Suc-ALAL-dox, Suc-ALAL-doxorubicin] registered an IC50 in data set [1] (incubation time 48 h) of 10 µM. In data set [2] (human, plasma), this molecule gave a remaining at 2 h, 50 µM of 80% and a remaining at 6 h, 50 µM of 54%. Moreover, the “Maximal body weight loss %” value in data set [3] (setting [6]) stood at 36.1%. The same molecule showed a dead animals in data set [3] (setting [7]) of 3. This molecule also returned an animals died with LS 174T tumors [4] (setting [7]) of 3 animals died.

For `COc1cccc2c1C(=O)c1c(O)c3c(c(O)c1C2=O)CC(O)(C(=O)CO)CC3OC1CC(NC(=O)C(CC(C)C)NC(=O)C(C)NC(=O)C(CC(C)C)NC(=O)CCNC(=O)CCC(=O)O)C(O)C(C)O1` (centres unmarked) [Suc-βALAL-dox, Suc-βALAL-doxorubicin], the IC50 in data set [1] (incubation time 48 h) was more than 10 µM. In addition, in data set [2] (human, plasma), the remaining at 2 h, 50 µM was 77.2% and the remaining at 6 h, 50 µM is 47.5%. In addition, the equitoxic dose in data set [3] (setting [8]) was found to be 47.4 µmol/kg. In data set [3] (mouse, in vivo, iv), the “Maximal body weight loss %” value was found to be 15.9%. Besides, in the data set on LS 174T tumors [4] (setting [9]), the “Optimal T/C (%)” value amounted to 52%. Also, in the data set on LS 174T tumors [4] (Experiment 2, dose 47.4 µmol/kg i.v.), the “Optimal T/C (%)” value worked out at 52%.

As to `CC(=O)O[C@H]1C(=O)[C@@]2(C)[C@H]([C@H](OC(=O)c3ccccc3)[C@]3(O)C[C@H](OC(=O)[C@H](OC(=O)C(CC(C)C)NC(=O)C(C)NC(=O)C(CC(C)C)NC(=O)CCNC(=O)CCC(=O)O)[C@@H](NC(=O)c4ccccc4)c4ccccc4)C(C)=C1C3(C)C)[C@]1(OC(C)=O)CO[C@@H]1C[C@@H]2O` (some centres unmarked) [Suc-βALAL-paclitaxel], the IC50 in data set [1] (incubation time 4h + 72 h) is 0.762 µM. For the same molecule, the remaining at 6 h, 100 µM in data set [2] (setting [10]) stood at 41%.

As for `COc1cccc2c1C(=O)c1c(O)c3c(c(O)c1C2=O)CC(O)(C(=O)CO)CC3OC1CC(NC(=O)C(CC(C)C)NC(=O)C(C)NC(=O)C(CC(C)C)NC(=O)C(C)NC(=O)C2C(C(=O)O)C(C(=O)O)C2C(=O)O)C(O)C(C)O1` (centres unmarked) [TA-ALAL-dox, TetraAcid-ALAL-doxorubicin], the IC50 in data set [1] (incubation time 48 h) was more than 10 µM. For the same molecule, the remaining at 2 h, 50 µM in data set [2] (after 2 hours in human plasma at 37°C, 50 µM doxorubicin conjugates, read-out: percentage of intact conjugate) was 83%. Besides, the remaining at 6 h, 50 µM in data set [2] (after 6 hours in human plasma at 37°C, 50 µM doxorubicin conjugates, read-out: percentage of intact conjugate) was determined as 67%. Besides, the “Maximal body weight loss %” value in data set [3] (setting [6]) is given as 13.7%; in data set [3] (Experiment 2, dose 55.1 µmol/kg i.v.), 11.3%; in data set [3] (setting [11]) it was 17.9%. In data set [3] (setting [8]), this molecule registered an equitoxic dose of 77.4 µmol/kg. Moreover, the results for the “Optimal T/C (%)” value in the data set on LS 174T tumors [4] (setting [9]) and in the data set on LS 174T tumors [4] (setting [11]) were 42% and 36%, respectively.

Take `CC(=O)O[C@H]1C(=O)[C@@]2(C)[C@H]([C@H](OC(=O)c3ccccc3)[C@]3(O)C[C@H](OC(=O)[C@H](OC(=O)C(CC(C)C)NC(=O)C(C)NC(=O)C(CC(C)C)NC(=O)C(C)NC(=O)C4C(C(=O)O)C(C(=O)O)C4C(=O)O)[C@@H](NC(=O)c4ccccc4)c4ccccc4)C(C)=C1C3(C)C)[C@]1(OC(C)=O)CO[C@@H]1C[C@@H]2O` (some centres unmarked) [TA-ALAL-paclitaxel, TetraAcid-ALAL-paclitaxel]: in data set [1] (incubation time 4h + 72 h), the IC50 amounted to 10 µM. Moreover, the remaining at 6 h, 100 µM in data set [2] (setting [10]) is 43%.

Turning to `COc1cccc2c1C(=O)c1c(O)c3c(c(O)c1C2=O)C[C@@](O)(C(=O)CO)C[C@@H]3O[C@H]1C[C@H](N)[C@H](O)[C@H](C)O1` [doxorubicin (dox), doxorubicin], in data set [1] (Homo sapiens, incubation time 48 h), 0.034 µM corresponded to half-maximal inhibition (IC50).

For the molecule `CC(=O)O[C@H]1C(=O)[C@@]2(C)[C@H]([C@H](OC(=O)c3ccccc3)[C@]3(O)C[C@H](OC(=O)[C@H](O)[C@@H](NC(=O)c4ccccc4)c4ccccc4)C(C)=C1C3(C)C)[C@]1(OC(C)=O)CO[C@@H]1C[C@@H]2O` [paclitaxel], in data set [1] (Homo sapiens, incubation time 4h + 72 h), the IC50 came out at 0.02 µM.

Suc-βALAL-mitomycin C [Suc-βALAL-MMC]: in data set [1] (incubation time 24 h), the midpoint of inhibition, the IC50, lay at 67 µM. In addition, in data set [2] (after 6 hours in human plasma at 37°C, 50 µM MMC conjugates), the “% of conjugates remaining” value was determined as 73%. The entries for the “Maximal body weight loss %” value with LS 174T tumors [5] (setting [12]) and with LS 174T tumors [5] (setting [13]) were 14.5% and 15.9%, respectively. Further, the “Optimal T/C (%)” value in the data set with LS 174T tumors [5] (setting [12]) is listed as 48%; in the data set on LS 174T tumors [5] (setting [13]), 43%.
